Results from patent US20170340751A1.

Experiments:
[1] = target: SIINFEKL/MHC-I complex on DC2.4 cells (mouse) (UniProt P01901); experiment: flow cytometry of DC2.4 cells incubated 13 h with OVA antigen fusion protein (SEQ ID NO: 3), PE-25.D1-16 at 0.6 ug/ml
[2] = target: SIINFEKL/MHC-I complex on DC2.4 cells (mouse) (UniProt P01901); experiment: flow cytometry of DC2.4 cells loaded with SIINFEKL peptide (positive control), PE-25.D1-16 at 0.6 ug/ml

percent of cells positively stained [1]: 17.6%
percent of cells positively stained [2]: > 80%
Substance: PE-labeled monoclonal antibody 25.D1-16
